How the values were obtained:
[1] = system: recent-onset NOD mouse model; assay: Determination of blood glucose effect in recent-onset NOD model (Assay V; Examples 1-3); format: in vivo
Experimental: Assay (V): Determination of Blood Glucose Effect in NOD Model
The purpose of this experiment was to determine the effect of administration of a GLP-1 agonist, such as the GLP-1 peptide, and/or an inhibitor of IL-21 function on blood glucose.
(§1) The recent-onset NOD mouse model was used. Mice were screened twice weekly and diabetes onset was defined as 2 consecutive blood glucose values of >250 mg/dL. Mice were enrolled into the experiment starting at 11 weeks of age and continued to be enrolled through 26 weeks of age. Dosing was weight based.
(§2) Blood glucose was measured by using a blood glucose meter (Bayer Contour USB) with the corresponding blood glucose strips. Mice with a blood glucose level>250 mg/dL on two consecutive days were considered diabetic. […] If the measurement was again >250 mg/dL, the animal was recorded as diabetic, enrolled into a treatment group, and was monitored further until it reached two consecutive readings of >600 mg/dL. At this time the mouse was sacrificed. Mice were also sacrificed before they reached a blood glucose value of >600 mg/dL if their overall condition was deteriorating, as determined by weight and/or overall appearance.
The mouse surrogate anti-IL-21 antibody was prepared by immunization of 6 to 8 week old BALB/c mice by s.c. injection with recombinant mouse IL-21 in a mixture of adjuvants. […] (SEQ ID No 13).
(§3) Anti-IL-21 was administered i.p. five times twice weekly starting immediately after inclusion of mice, i.e. from Day 0. […] Mouse surrogate anti-IL-21 is an mIgG1/kappa isotype with the VL amino acid sequence: […] […] […] (SEQ ID NO:26), and the VH amino acid sequence: […] […] […] (SEQ ID NO:27). […] Before use, anti-IL-21 was diluted in buffer (20 mM phosphate, 150 mM NaCl, pH=7.4). Aliquots of anti-IL-21 for injection into the animals were only thawed once.
Enrolment of mice of as described in Example 1 was continued adding 9, 8, 8 and 8 subjects to the treatment groups 1 to 4, respectively.

[2] = system: recent-onset NOD mouse model; assay: Liraglutide in combination with Anti-IL-21 in the NOD model, confirmation study (Example 4); format: in vivo
Experimental: as §1, §2, §3

B1: Anti-IL-21: Mouse surrogate anti-IL-21 antibody, mIgG1/kappa isotype, VL SEQ ID NO:26 and VH SEQ ID NO:27, raised against recombinant mouse IL-21 (antibody, V domains shown)
VH: MNFGPSLIFLVLILKGVQCEVQLVESGGGLVKPGGSLKLSCAASGFTFNRYSMSWVRQSPEKRLEWVAEISVGGSYTQYVDIVTGRFTISRDNAKNTLYLEMSSLRSEDTAMYYCARLYYSGSGDSYYYAMDYWGQGTSVTVSS
VL: MDFQVQIFSFLLISASVILSRGQTVLIQSPAIMSASPGEKVTMTCSASSSVSYMHWYQQKSGTSPKRWIYDTSKLASGVPARFSGSGSGTSYSLTISSMEAEDAATYYCQQWNSNPPTFGGGTKLEMK
- Effect on hyperglycemia (in words) ([1]; Example 1, NOD mice, 70 days): able to reverse hyperglycemia in some of the mice
- Mice in which diabetes was reversed (BGV lowered to below 250 mg/dL) ([1]; Examples 1 and 2 compiled, FIG. 5A, 35 days period): half of the mice
- Number of mice surviving / remaining viable throughout the study period of 70 days (in words) ([1]; Examples 1 and 2 compiled, FIGS. 3 and 4): substantial number
- Average blood glucose +/− SD ([1]; Table 1, Example 1 mice (N = 10 per group at onset), day 0 post diabetes onset): 351 ± 56 mg/dL
- Average blood glucose +/− SD ([1]; Table 1, Example 1 mice, day 4 post diabetes onset): 370 ± 73 mg/dL
- Average blood glucose +/− SD ([1]; Table 1, Example 1 mice, day 7 post diabetes onset): 404 ± 93 mg/dL
- Average blood glucose +/− SD ([1]; Table 1, Example 1 mice, day 11 post diabetes onset): 405 ± 160 mg/dL
- Average blood glucose +/− SD ([1]; Table 1, Example 1 mice, day 14 post diabetes onset): 379 +/− 139 (n = 8) mg/dL
- Average blood glucose +/− SD ([1]; Table 1, Example 1 mice, day 18 post diabetes onset): 351 +/− 178 (n = 7) mg/dL
- Average blood glucose +/− SD ([1]; Table 1, Example 1 mice, day 21 post diabetes onset): 285 +/− 151 (n = 6) mg/dL
- Average blood glucose +/− SD ([1]; Table 1, Example 1 mice, day 25 post diabetes onset): 279 +/− 169 (n = 6) mg/dL
- Average blood glucose +/− SD ([1]; Table 1, Example 1 mice, day 28 post diabetes onset): 204 +/− 95 (n = 5) mg/dL
- Average blood glucose +/− SD ([1]; Table 1, Example 1 mice, day 32 post diabetes onset): 221 +/− 101 (n = 5) mg/dL
- Average blood glucose +/− SD ([1]; Table 1, Example 1 mice, day 35 post diabetes onset): 205 +/− 116 (n = 5) mg/dL
- Average blood glucose +/− SD ([1]; Table 1, Example 1 mice, day 39 post diabetes onset (liraglutide withdrawn after day 35)): 224 +/− 140 (n = 5) mg/dL
- Average blood glucose +/− SD ([1]; Table 1, Example 1 mice, day 42 post diabetes onset (liraglutide withdrawn after day 35)): 215 +/− 112 (n = 5) mg/dL
- Average blood glucose +/− SD ([1]; Table 1, Example 1 mice, day 46 post diabetes onset (liraglutide withdrawn after day 35)): 201 +/− 122 (n = 5) mg/dL
- Average blood glucose +/− SD ([1]; Table 1, Example 1 mice, day 49 post diabetes onset (liraglutide withdrawn after day 35)): 217 +/− 140 (n = 5) mg/dL
- Average blood glucose +/− SD ([1]; Table 1, Example 1 mice, day 53 post diabetes onset (liraglutide withdrawn after day 35)): 229 +/− 186 (n = 5) mg/dL
- Average blood glucose +/− SD ([1]; Table 1, Example 1 mice, day 56 post diabetes onset (liraglutide withdrawn after day 35)): 128 +/− 10 (n = 4) mg/dL
- Average blood glucose +/− SD ([1]; Table 1, Example 1 mice, day 60 post diabetes onset (liraglutide withdrawn after day 35)): 174 +/− 59 (n = 4) mg/dL
- Average blood glucose +/− SD ([1]; Table 1, Example 1 mice, day 63 post diabetes onset (liraglutide withdrawn after day 35)): 156 +/− 30 (n = 4) mg/dL
- Average blood glucose +/− SD ([1]; Table 1, Example 1 mice, day 67 post diabetes onset (liraglutide withdrawn after day 35)): 138 +/− 16 (n = 4) mg/dL
- Average blood glucose +/− SD ([1]; Table 1, Example 1 mice, day 70 post diabetes onset (liraglutide withdrawn after day 35)): 153 +/− 30 (n = 4) mg/dL
- Average blood glucose +/− SD ([1]; Table 2, additional mice (Example 2), day 0 post diabetes onset): 353 +/− 59 (n = 8) mg/dL
- Average blood glucose +/− SD ([1]; Table 2, additional mice (Example 2), day 4 post diabetes onset): 326 +/− 104 (n = 8) mg/dL
- Average blood glucose +/− SD ([1]; Table 2, additional mice (Example 2), day 7 post diabetes onset): 375 +/− 103 (n = 8) mg/dL
- Average blood glucose +/− SD ([1]; Table 2, additional mice (Example 2), day 11 post diabetes onset): 361 +/− 125 (n = 8) mg/dL
- Average blood glucose +/− SD ([1]; Table 2, additional mice (Example 2), day 14 post diabetes onset): 338 +/− 153 (n = 8) mg/dL
- Average blood glucose +/− SD ([1]; Table 2, additional mice (Example 2), day 18 post diabetes onset): 336 +/− 183 (n = 8) mg/dL
- Average blood glucose +/− SD ([1]; Table 2, additional mice (Example 2), day 21 post diabetes onset): 248 +/− 153 (n = 6) mg/dL
- Average blood glucose +/− SD ([1]; Table 2, additional mice (Example 2), day 28 post diabetes onset): 219 +/− 162 (n = 6) mg/dL
- Average blood glucose +/− SD ([1]; Table 2, additional mice (Example 2), day 35 post diabetes onset): 147 +/− 15 (n = 5) mg/dL
- Average blood glucose +/− SD ([1]; Table 2, additional mice (Example 2), day 42 post diabetes onset (liraglutide withdrawn after day 35)): 264 +/− 121 (n = 2^#) mg/dL
- Average blood glucose +/− SD ([1]; Table 2, additional mice (Example 2), day 49 post diabetes onset (liraglutide withdrawn after day 35)): 118 +/− 17 (n = 2) mg/dL
- Average blood glucose +/− SD ([1]; Table 2, additional mice (Example 2), day 56 post diabetes onset (liraglutide withdrawn after day 35)): 286 +/− 107 (n = 2) mg/dL
- Average blood glucose +/− SD ([1]; Table 2, additional mice (Example 2), day 63 post diabetes onset (liraglutide withdrawn after day 35)): 314 +/− 157 (n = 2) mg/dL
- Average blood glucose +/− SD ([1]; Table 2, additional mice (Example 2), day 70 post diabetes onset (liraglutide withdrawn after day 35)): 400 +/− 108 (n = 2) mg/dL
- Average blood glucose +/− SD ([1]; Table 3, all mice (Examples 1 and 2 compiled), day 0 post diabetes onset): 352 +/− 57 (n = 18) mg/dL
- Average blood glucose +/− SD ([1]; Table 3, all mice (Examples 1 and 2 compiled), day 4 post diabetes onset): 351 +/− 91 (n = 18) mg/dL
- Average blood glucose +/− SD ([1]; Table 3, all mice (Examples 1 and 2 compiled), day 7 post diabetes onset): 391 +/− 99 (n = 18) mg/dL
- Average blood glucose +/− SD ([1]; Table 3, all mice (Examples 1 and 2 compiled), day 11 post diabetes onset): 385 +/− 147 (n = 18) mg/dL
- Average blood glucose +/− SD ([1]; Table 3, all mice (Examples 1 and 2 compiled), day 14 post diabetes onset): 358 +/− 148 (n = 16) mg/dL
- Average blood glucose +/− SD ([1]; Table 3, all mice (Examples 1 and 2 compiled), day 18 post diabetes onset): 343 +/− 181 (n = 15) mg/dL
- Average blood glucose +/− SD ([1]; Table 3, all mice (Examples 1 and 2 compiled), day 21 post diabetes onset): 267 +/− 153 (n = 12) mg/dL
- Average blood glucose +/− SD ([1]; Table 3, all mice (Examples 1 and 2 compiled), day 28 post diabetes onset): 212 +/− 136 (n = 11) mg/dL
- Average blood glucose +/− SD ([1]; Table 3, all mice (Examples 1 and 2 compiled), day 35 post diabetes onset): 176 +/− 88 (n = 10) mg/dL
- Average blood glucose +/− SD ([1]; Table 3, all mice (Examples 1 and 2 compiled), day 42 post diabetes onset (liraglutide withdrawn after day 35)): 229 +/− 117 (n = 7^#) mg/dL
- Average blood glucose +/− SD ([1]; Table 3, all mice (Examples 1 and 2 compiled), day 49 post diabetes onset (liraglutide withdrawn after day 35)): 189 +/− 127 (n = 7) mg/dL
- Average blood glucose +/− SD ([1]; Table 3, all mice (Examples 1 and 2 compiled), day 56 post diabetes onset (liraglutide withdrawn after day 35)): 181 +/− 97 (n = 6) mg/dL
- Average blood glucose +/− SD ([1]; Table 3, all mice (Examples 1 and 2 compiled), day 63 post diabetes onset (liraglutide withdrawn after day 35)): 209 +/− 119 (n = 6) mg/dL
- Average blood glucose +/− SD ([1]; Table 3, all mice (Examples 1 and 2 compiled), day 70 post diabetes onset (liraglutide withdrawn after day 35)): 236 +/− 134 (n = 6) mg/dL
- Survival through 70 days post onset of hyperglycaemia ([2]; Example 4): 75%
- Mice with established hyperglycaemia cured / reversed ([2]; Example 4, first 35 days post disease onset): 75%
